In IntAct's records for PubMed 35512704:

B1: Mothers against decapentaplegic homolog 4 (Homo sapiens), Q13485 (parent)
chain: MDNMSITNTPTSNDACLSIVHSLMCHRQGGESETFAKRAIESLVKKLKEKKDELDSLITAITTNGAHPSKCVTIQRTLDGRLQVAGRKGFPHVIYARLWRWPDLHKNELKHVKYCQYAFDLKCDSVCVNPYHYERVVSPGIDLSGLTLQSNAPSSMMVKDEYVHDFEGQPSLSTEGHSIQTIQHPPSNRASTETYSTPALLAPSESNATSTANFPNIPVASTSQPASILGGSHSEGLLQIASGPQPGQQQNGFTGQPATYHHNSTTTWTGSRTAPYTPNLPHHQNGHLQHHPPMPPHPGHYWPVHNELAFQPPISNHPAPEYWCSIAYFEMDVQVGETFKVPSSCPIVTVDGYVDPSGGDRFCLGQLSNVHRTEAIERARLHIGKGVQLECKGEGDVWVRCLSDHAVFVQSYYLDREAGRAPGDAVHKIYPSAYIKVFDLRQCHRQMQQQAATAQAAAAAQAAAVAGNIPGPGSVGGIAPAISLSAAAGIGVDDLRRLCILRMSFVKGWGPDYPRQSIKETPCWIEIHLHRALQLLDEVLHTMPIADPQPLD
partner: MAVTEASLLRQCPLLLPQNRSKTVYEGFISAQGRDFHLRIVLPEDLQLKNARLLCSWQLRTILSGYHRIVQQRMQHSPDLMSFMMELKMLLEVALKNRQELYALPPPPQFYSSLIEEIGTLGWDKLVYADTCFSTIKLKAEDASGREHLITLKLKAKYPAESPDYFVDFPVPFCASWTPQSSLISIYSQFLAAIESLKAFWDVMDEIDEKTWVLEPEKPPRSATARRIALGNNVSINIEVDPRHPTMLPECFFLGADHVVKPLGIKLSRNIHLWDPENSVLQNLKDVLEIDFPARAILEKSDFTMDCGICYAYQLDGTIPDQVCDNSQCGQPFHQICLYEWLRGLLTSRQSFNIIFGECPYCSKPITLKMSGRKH
B2: Mothers against decapentaplegic homolog 4 (Homo sapiens), Q13485 (parent)
chain: B1 chain
partner: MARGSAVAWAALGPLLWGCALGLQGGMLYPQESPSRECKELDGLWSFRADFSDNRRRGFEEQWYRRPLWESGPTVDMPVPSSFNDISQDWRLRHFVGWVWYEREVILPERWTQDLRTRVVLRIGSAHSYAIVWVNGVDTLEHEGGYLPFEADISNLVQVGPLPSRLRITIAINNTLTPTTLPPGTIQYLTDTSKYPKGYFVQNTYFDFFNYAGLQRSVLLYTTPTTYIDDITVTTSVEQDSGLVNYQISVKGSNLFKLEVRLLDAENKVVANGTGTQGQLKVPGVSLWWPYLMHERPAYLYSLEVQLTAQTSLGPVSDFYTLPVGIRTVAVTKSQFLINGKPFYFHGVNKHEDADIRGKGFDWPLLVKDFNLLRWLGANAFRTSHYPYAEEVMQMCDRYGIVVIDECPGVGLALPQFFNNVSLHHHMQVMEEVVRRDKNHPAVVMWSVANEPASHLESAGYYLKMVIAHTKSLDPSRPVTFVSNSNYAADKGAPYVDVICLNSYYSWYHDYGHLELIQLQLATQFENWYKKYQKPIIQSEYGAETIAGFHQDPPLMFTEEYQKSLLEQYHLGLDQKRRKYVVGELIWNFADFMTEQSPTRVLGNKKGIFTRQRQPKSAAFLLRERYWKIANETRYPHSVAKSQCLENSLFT
B3: Mothers against decapentaplegic homolog 4 (Homo sapiens), Q13485 (parent)
chain: B1 chain
partner: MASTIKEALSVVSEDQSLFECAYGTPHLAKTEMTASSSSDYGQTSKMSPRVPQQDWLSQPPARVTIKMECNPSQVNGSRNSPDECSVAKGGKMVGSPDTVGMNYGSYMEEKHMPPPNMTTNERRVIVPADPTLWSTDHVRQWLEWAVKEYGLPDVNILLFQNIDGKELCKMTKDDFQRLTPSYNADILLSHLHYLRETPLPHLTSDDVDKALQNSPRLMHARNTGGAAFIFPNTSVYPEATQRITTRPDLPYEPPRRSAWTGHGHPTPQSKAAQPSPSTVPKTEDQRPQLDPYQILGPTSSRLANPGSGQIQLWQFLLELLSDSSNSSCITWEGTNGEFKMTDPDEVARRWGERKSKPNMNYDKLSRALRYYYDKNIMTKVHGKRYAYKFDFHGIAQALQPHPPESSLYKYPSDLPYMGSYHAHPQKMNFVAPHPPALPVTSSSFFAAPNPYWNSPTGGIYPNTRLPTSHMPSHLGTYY
B4: Mothers against decapentaplegic homolog 4 (Homo sapiens), Q13485 (parent)
chain: B1 chain
partner: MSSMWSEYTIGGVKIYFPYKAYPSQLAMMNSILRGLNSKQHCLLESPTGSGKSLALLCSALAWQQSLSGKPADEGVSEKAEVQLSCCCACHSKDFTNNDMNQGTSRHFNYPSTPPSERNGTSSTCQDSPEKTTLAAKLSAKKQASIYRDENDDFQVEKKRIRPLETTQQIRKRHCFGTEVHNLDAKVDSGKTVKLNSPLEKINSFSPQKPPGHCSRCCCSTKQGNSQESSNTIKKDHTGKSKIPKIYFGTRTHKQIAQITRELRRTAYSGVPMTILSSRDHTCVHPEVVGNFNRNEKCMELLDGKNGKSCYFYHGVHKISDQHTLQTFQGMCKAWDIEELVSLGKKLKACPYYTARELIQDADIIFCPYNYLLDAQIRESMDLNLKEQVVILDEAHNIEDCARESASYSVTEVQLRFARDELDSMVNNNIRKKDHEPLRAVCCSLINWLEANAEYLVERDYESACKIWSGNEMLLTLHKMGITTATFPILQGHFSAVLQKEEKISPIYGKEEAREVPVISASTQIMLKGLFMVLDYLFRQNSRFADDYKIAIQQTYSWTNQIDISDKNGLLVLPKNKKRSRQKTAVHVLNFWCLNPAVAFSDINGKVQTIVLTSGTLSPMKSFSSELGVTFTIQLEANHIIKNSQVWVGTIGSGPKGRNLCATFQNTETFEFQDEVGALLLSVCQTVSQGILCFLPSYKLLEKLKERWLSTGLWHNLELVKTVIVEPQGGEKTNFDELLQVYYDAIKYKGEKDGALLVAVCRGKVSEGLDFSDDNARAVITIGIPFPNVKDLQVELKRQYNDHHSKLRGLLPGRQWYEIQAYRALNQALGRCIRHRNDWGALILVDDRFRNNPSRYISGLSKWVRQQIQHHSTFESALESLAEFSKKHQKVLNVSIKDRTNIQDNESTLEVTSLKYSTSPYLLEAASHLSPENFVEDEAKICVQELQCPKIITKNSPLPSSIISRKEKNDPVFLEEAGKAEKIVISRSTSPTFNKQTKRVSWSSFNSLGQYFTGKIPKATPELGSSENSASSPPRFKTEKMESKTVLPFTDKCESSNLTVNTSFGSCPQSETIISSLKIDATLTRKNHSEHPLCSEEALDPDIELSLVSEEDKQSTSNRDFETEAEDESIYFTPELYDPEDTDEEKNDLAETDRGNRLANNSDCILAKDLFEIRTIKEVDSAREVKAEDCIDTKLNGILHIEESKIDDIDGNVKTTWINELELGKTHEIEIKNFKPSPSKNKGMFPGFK
B5: Mothers against decapentaplegic homolog 4 (Homo sapiens), Q13485 (parent)
chain: B1 chain
partner: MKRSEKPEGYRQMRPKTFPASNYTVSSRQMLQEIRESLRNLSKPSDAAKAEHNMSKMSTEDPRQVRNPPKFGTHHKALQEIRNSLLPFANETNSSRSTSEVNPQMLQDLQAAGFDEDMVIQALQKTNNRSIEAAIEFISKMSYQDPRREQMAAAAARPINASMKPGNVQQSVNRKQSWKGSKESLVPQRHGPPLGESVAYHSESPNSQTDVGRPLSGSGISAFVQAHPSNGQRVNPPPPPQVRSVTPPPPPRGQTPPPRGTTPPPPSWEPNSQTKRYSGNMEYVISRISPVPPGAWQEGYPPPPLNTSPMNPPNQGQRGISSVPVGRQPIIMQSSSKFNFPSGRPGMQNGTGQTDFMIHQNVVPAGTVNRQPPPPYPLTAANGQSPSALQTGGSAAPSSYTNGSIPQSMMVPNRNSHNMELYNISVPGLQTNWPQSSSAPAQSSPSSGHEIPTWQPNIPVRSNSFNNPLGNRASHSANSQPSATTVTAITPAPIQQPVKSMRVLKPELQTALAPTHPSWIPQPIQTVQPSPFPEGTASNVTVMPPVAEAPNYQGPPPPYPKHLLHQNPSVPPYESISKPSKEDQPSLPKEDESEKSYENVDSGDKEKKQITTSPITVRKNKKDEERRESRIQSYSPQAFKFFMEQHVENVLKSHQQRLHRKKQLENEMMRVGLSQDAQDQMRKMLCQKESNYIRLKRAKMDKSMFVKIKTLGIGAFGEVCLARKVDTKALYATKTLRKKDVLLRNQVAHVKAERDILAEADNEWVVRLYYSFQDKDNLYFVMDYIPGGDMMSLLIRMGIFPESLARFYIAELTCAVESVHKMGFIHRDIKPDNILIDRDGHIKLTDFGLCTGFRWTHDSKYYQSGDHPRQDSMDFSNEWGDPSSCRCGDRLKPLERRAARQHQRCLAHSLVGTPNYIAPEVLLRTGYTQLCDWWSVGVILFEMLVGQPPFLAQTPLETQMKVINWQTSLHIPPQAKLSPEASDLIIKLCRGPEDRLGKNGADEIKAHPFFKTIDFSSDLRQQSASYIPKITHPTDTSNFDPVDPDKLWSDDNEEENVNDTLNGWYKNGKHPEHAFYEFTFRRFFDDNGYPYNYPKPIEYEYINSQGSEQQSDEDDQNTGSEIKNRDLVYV
B6: Mothers against decapentaplegic homolog 4 (Homo sapiens), Q13485 (parent)
chain: B1 chain
partner: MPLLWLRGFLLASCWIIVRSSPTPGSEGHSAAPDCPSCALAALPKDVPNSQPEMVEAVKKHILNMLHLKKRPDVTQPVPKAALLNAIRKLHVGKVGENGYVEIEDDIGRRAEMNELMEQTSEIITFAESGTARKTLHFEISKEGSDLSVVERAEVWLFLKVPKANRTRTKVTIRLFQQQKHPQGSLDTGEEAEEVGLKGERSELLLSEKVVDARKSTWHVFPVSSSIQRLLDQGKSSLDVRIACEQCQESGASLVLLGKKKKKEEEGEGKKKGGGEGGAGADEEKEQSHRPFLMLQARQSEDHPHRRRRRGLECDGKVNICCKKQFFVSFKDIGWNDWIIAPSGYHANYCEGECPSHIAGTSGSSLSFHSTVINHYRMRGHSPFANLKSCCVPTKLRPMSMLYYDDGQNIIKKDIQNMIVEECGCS

Variants of: B1
Details: with fancl_human FANCL

effect of a mutation on the interaction	Variant
with no effect	R361H

Variants of: B1
Details: with fancl_human FANCL
Remark: another data set of the same source

effect of a mutation on the interaction	Variant
with no effect	R361C

Variants of: B1
Details: with fancl_human FANCL
Remark: another data set of the same source

effect of a mutation on the interaction	Variant
with no effect	D351H

Variants of: B1
Details: with fancl_human FANCL
Remark: another data set of the same source

effect of a mutation on the interaction	Variant
with no effect	G386D

Variants of: B1
Details: with fancl_human FANCL
Remark: another data set of the same source

effect of a mutation on the interaction	Variant
increasing interaction strength	G386D

Variants of: B2
Details: with bglr_human GUSB

effect of a mutation on the interaction	Variant
with no effect	D351H

Variants of: B2
Details: with bglr_human GUSB
Remark: another data set of the same source

effect of a mutation on the interaction	Variant
with no effect	G386D

Variants of: B2
Details: with bglr_human GUSB
Remark: another data set of the same source

effect of a mutation on the interaction	Variant
with no effect	R361H

Variants of: B2
Details: with bglr_human GUSB
Remark: another data set of the same source

effect of a mutation on the interaction	Variant
with no effect	R361C

Variants of: B3
Details: with erg_human ERG

effect of a mutation on the interaction	Variant
with no effect	R361H

Variants of: B3
Details: with erg_human ERG
Remark: another data set of the same source

effect of a mutation on the interaction	Variant
with no effect	R361C

Variants of: B3
Details: with erg_human ERG
Remark: another data set of the same source

effect of a mutation on the interaction	Variant
with no effect	D351H

Variants of: B3
Details: with erg_human ERG
Remark: another data set of the same source

effect of a mutation on the interaction	Variant
with no effect	G386D

Variants of: B4
Details: with fancj_human BRIP1, Q9BX63

effect of a mutation on the interaction	Variant
with no effect	D351H

Variants of: B4
Details: with fancj_human BRIP1, Q9BX63
Remark: another data set of the same source

effect of a mutation on the interaction	Variant
with no effect	G386D

Variants of: B5
Details: with lats1_human LATS1, O95835

effect of a mutation on the interaction	Variant
with no effect	D351H

Variants of: B5
Details: with lats1_human LATS1, O95835
Remark: another data set of the same source

effect of a mutation on the interaction	Variant
with no effect	R361C

Variants of: B5
Details: with lats1_human LATS1, O95835
Remark: another data set of the same source

effect of a mutation on the interaction	Variant
with no effect	R361H

Variants of: B5
Details: with lats1_human LATS1, O95835
Remark: another data set of the same source

effect of a mutation on the interaction	Variant
with no effect	G386D

Variants of: B5
Details: with lats1_human LATS1, O95835
Remark: another data set of the same source

effect of a mutation on the interaction	Variant
increasing interaction strength	G386D

Variants of: B6
Details: with inhba_human INHBA

effect of a mutation on the interaction	Variant
with no effect	D351H

Variants of: B6
Details: with inhba_human INHBA
Remark: another data set of the same source

effect of a mutation on the interaction	Variant
with no effect	R361H

Variants of: B6
Details: with inhba_human INHBA
Remark: another data set of the same source

effect of a mutation on the interaction	Variant
with no effect	R361C

Variants of: B6
Details: with inhba_human INHBA
Remark: another data set of the same source

effect of a mutation on the interaction	Variant
with no effect	G386D
